# Assay results: publication PMC5207153, “Differential Receptor Binding and Regulatory Mechanisms for the Lymphangiogenic Growth Factors Vascular Endothelial Growth Factor (VEGF)-C and -D*^([image sbox.jpg])” (The Journal of Biological Chemistry, 2016)
# T1: Recombinant human VEGFR-3-Fc chimera (human, UniProt P35916 25-775)
# T1 construct: human VEGFR-3 part of the bought Fc chimera; source: bought: R&D Systems
# T1 sequence (looked up): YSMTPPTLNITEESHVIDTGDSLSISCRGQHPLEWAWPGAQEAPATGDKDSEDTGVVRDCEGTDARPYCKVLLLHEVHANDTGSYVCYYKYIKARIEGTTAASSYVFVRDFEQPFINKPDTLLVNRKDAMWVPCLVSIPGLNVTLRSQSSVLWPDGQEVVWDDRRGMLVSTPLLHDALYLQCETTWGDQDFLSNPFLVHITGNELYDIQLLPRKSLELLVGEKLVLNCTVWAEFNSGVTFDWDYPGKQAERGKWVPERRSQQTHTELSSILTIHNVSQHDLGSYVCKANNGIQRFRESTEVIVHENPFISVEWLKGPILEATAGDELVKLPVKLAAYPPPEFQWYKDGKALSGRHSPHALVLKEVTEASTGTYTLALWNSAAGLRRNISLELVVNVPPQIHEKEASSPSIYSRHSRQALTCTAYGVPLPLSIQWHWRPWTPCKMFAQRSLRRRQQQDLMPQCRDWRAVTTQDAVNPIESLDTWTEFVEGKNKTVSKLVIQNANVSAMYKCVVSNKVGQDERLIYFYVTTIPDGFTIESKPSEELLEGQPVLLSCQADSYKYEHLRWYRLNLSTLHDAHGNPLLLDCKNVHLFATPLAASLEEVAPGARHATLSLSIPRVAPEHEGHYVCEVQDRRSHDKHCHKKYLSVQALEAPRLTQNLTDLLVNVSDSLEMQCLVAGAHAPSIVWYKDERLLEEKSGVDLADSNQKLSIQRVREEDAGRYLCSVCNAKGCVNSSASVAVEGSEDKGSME
# Experiments:
# [1] = target: T1, Recombinant human VEGFR-3-Fc chimera
# [2] = target: T1, Recombinant human VEGFR-3-Fc chimera; experiment: ELISA; plates coated with human VEGFR-2- or VEGFR-3-Fc chimera at 0.5 μg/ml in 100 mM carbonate buffer pH 9.5; blocked with 1% BSA in PBS, 0.1% Tween 20; 20 ng purified FLAG-tagged ligand in 100 μl PBS, 1 h, room temperature; bound ligand detected with M2-HRP; result as percent of VEGF-DΔNΔC; conditions: both partners purified
# [3] = target: T2, Recombinant human VEGFR-2-Fc chimera (human, UniProt P35968 20-764); experiment: as above; conditions: both partners purified
# T2 construct: human VEGFR-2 part of the bought Fc chimera; source: bought: R&D Systems
# T2 sequence (P35968 20-764, change not shown): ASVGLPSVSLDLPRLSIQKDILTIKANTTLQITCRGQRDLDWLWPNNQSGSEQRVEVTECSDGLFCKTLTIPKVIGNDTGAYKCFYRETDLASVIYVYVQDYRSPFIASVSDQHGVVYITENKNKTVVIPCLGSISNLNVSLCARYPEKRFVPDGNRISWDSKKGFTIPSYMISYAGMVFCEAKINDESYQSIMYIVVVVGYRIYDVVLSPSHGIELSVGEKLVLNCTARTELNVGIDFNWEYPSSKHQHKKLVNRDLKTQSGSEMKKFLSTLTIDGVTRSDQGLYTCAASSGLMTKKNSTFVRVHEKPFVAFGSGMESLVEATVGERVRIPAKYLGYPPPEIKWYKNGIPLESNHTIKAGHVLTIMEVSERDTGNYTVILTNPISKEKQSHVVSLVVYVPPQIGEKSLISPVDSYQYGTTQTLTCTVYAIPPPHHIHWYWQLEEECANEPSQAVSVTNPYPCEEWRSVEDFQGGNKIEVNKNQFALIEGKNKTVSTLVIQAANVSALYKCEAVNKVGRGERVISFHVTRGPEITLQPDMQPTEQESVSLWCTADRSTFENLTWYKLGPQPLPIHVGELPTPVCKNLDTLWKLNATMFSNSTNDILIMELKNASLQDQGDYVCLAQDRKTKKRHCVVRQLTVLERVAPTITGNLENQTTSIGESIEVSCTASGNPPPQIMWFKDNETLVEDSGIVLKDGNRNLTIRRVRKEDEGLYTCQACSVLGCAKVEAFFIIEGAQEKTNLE
# VEGF-CΔNΔC, sequence (P49767 102-229, stated change not applied): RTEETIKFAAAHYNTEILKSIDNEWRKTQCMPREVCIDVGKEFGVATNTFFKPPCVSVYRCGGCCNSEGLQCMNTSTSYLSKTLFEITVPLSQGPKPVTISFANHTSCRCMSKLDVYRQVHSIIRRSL
Molecule,titration of ligand in the bioassay of VEGFR-3 binding and cross-linking; potency relative to VEGF-DΔNΔC (Fig. 6C) [1],binding result [2],binding result [3]
VEGF-CΔNΔC (from UniProt P49767 102-229) (ligand),10 fold,–,–
"VEGF-DΔNΔC (ligand, human, UniProt O43915 93-201, looked up, human VEGF-D, residues 93-201 (recombinant form of mature VEGF-D); also called mature human VEGF-D; source: 293-F cells, transiently transfected; purified from conditioned medium on M2 (anti-FLAG) gel; not shown: FLAG, N-terminal, kept) FYDIETLKVIDEEWQRTQCSPRETCVEVASELGKSTNTFFKPPCVNVFRCGGCCNEESLICMNTSTSYISKQLFEISVPLTSVPELVPVKVANHTGCKCLPTAPRHPYS",–,binds,binds
"VEGF-DΔNΔC D103A (ligand, human, UniProt O43915 93-201, looked up, human VEGF-D, residues 93-201, D103A; source: 293-F cells, transiently transfected; purified from conditioned medium on M2 (anti-FLAG) gel; not shown: FLAG, N-terminal, kept) FYDIETLKVIAEEWQRTQCSPRETCVEVASELGKSTNTFFKPPCVNVFRCGGCCNEESLICMNTSTSYISKQLFEISVPLTSVPELVPVKVANHTGCKCLPTAPRHPYS",–,binds,binds
"VEGF-DΔNΔC F93A (ligand, human, UniProt O43915 93-201, looked up, human VEGF-D, residues 93-201, Phe93 to alanine; source: 293-F cells, transiently transfected; purified from conditioned medium on M2 (anti-FLAG) gel; not shown: FLAG, N-terminal, kept) AYDIETLKVIDEEWQRTQCSPRETCVEVASELGKSTNTFFKPPCVNVFRCGGCCNEESLICMNTSTSYISKQLFEISVPLTSVPELVPVKVANHTGCKCLPTAPRHPYS",–,–,binds
"VEGF-DΔNΔC D95A (ligand, human, UniProt O43915 93-201, looked up, human VEGF-D, residues 93-201, Asp95 to alanine; source: 293-F cells, transiently transfected; purified from conditioned medium on M2 (anti-FLAG) gel; not shown: FLAG, N-terminal, kept) FYAIETLKVIDEEWQRTQCSPRETCVEVASELGKSTNTFFKPPCVNVFRCGGCCNEESLICMNTSTSYISKQLFEISVPLTSVPELVPVKVANHTGCKCLPTAPRHPYS",–,–,binds
"VEGF-DΔNΔC I96A (ligand, human, UniProt O43915 93-201, looked up, human VEGF-D, residues 93-201, residue 96 (Ile) to alanine; source: 293-F cells, transiently transfected; purified from conditioned medium on M2 (anti-FLAG) gel; not shown: FLAG, N-terminal, kept) FYDAETLKVIDEEWQRTQCSPRETCVEVASELGKSTNTFFKPPCVNVFRCGGCCNEESLICMNTSTSYISKQLFEISVPLTSVPELVPVKVANHTGCKCLPTAPRHPYS",–,–,binds
"VEGF-DΔNΔC E97A (ligand, human, UniProt O43915 93-201, looked up, human VEGF-D, residues 93-201, Glu97 to alanine; source: 293-F cells, transiently transfected; purified from conditioned medium on M2 (anti-FLAG) gel; not shown: FLAG, N-terminal, kept) FYDIATLKVIDEEWQRTQCSPRETCVEVASELGKSTNTFFKPPCVNVFRCGGCCNEESLICMNTSTSYISKQLFEISVPLTSVPELVPVKVANHTGCKCLPTAPRHPYS",–,–,binds
"VEGF-DΔNΔC T98A (ligand, human, UniProt O43915 93-201, looked up, human VEGF-D, residues 93-201, Thr98 to alanine; source: 293-F cells, transiently transfected; purified from conditioned medium on M2 (anti-FLAG) gel; not shown: FLAG, N-terminal, kept) FYDIEALKVIDEEWQRTQCSPRETCVEVASELGKSTNTFFKPPCVNVFRCGGCCNEESLICMNTSTSYISKQLFEISVPLTSVPELVPVKVANHTGCKCLPTAPRHPYS",–,–,binds
"VEGF-DΔNΔC L99A (ligand, human, UniProt O43915 93-201, looked up, human VEGF-D, residues 93-201, L99A; source: 293-F cells, transiently transfected; purified from conditioned medium on M2 (anti-FLAG) gel; not shown: FLAG, N-terminal, kept) FYDIETAKVIDEEWQRTQCSPRETCVEVASELGKSTNTFFKPPCVNVFRCGGCCNEESLICMNTSTSYISKQLFEISVPLTSVPELVPVKVANHTGCKCLPTAPRHPYS",–,–,binds

# Continued, values first:
titration of ligand in the bioassay of VEGFR-3 binding and cross-linking; potency relative to VEGF-DΔNΔC (Fig. 6C) [1],binding result [2],binding result [3],Molecule
–,binds,binds,"VEGF-DΔNΔC I102A (ligand, human, UniProt O43915 93-201, looked up, human VEGF-D, residues 93-201, I102A; source: 293-F cells, transiently transfected; purified from conditioned medium on M2 (anti-FLAG) gel; not shown: FLAG, N-terminal, kept) FYDIETLKVADEEWQRTQCSPRETCVEVASELGKSTNTFFKPPCVNVFRCGGCCNEESLICMNTSTSYISKQLFEISVPLTSVPELVPVKVANHTGCKCLPTAPRHPYS"
–,–,binds,"VEGF-DΔNΔC Y94A (ligand, human, UniProt O43915 93-201, looked up, human VEGF-D, residues 93-201, Y94A; source: 293-F cells, transiently transfected; purified from conditioned medium on M2 (anti-FLAG) gel; not shown: FLAG, N-terminal, kept) FADIETLKVIDEEWQRTQCSPRETCVEVASELGKSTNTFFKPPCVNVFRCGGCCNEESLICMNTSTSYISKQLFEISVPLTSVPELVPVKVANHTGCKCLPTAPRHPYS"
–,binds,binds,"VEGF-DΔNΔC E105A (ligand, human, UniProt O43915 93-201, looked up, human VEGF-D, residues 93-201, E105A; source: 293-F cells, transiently transfected; purified from conditioned medium on M2 (anti-FLAG) gel; not shown: FLAG, N-terminal, kept) FYDIETLKVIDEAWQRTQCSPRETCVEVASELGKSTNTFFKPPCVNVFRCGGCCNEESLICMNTSTSYISKQLFEISVPLTSVPELVPVKVANHTGCKCLPTAPRHPYS"
–,binds,binds,"VEGF-DΔNΔC W106A (ligand, human, UniProt O43915 93-201, looked up, human VEGF-D, residues 93-201, W106A; source: 293-F cells, transiently transfected; purified from conditioned medium on M2 (anti-FLAG) gel; not shown: FLAG, N-terminal, kept) FYDIETLKVIDEEAQRTQCSPRETCVEVASELGKSTNTFFKPPCVNVFRCGGCCNEESLICMNTSTSYISKQLFEISVPLTSVPELVPVKVANHTGCKCLPTAPRHPYS"
